Data from publication PMC6050272, “A TRAF3-NIK module differentially regulates DNA vs RNA pathways in innate immune signaling” (Nature Communications, 2018).

Molecular target: the molecule itself
Test: semi-native SDS PAGE; whole-cell lysates of WT and Nik-/- BMDMs transfected with B-DNA (2 μg/mL) for the indicated times; native sample buffer without β-mercaptoethanol, not boiled, run on SDS gels; immunoblot for STING

B1: STING, endogenous in mouse cells (natural protein, mouse (endogenous in MEFs and BMDMs), UniProt Q3TBT3 1-378, looked up)
chain: MPYSNLHPAIPRPRGHRSKYVALIFLVASLMILWVAKDPPNHTLKYLALHLASHELGLLLKNLCCLAEELCHVQSRYQGSYWKAVRACLGCPIHCMAMILLSSYFYFLQNTADIYLSWMFGLLVLYKSLSMLLGLQSLTPAEVSAVCEEKKLNVAHGLAWSYYIGYLRLILPGLQARIRMFNQLHNNMLSGAGSRRLYILFPLDCGVPDNLSVVDPNIRFRDMLPQQNIDRAGIKNRVYSNSVYEILENGQPAGVCILEYATPLQTLFAMSQDAKAGFSREDRLEQAKLFCRTLEEILEDVPESRNNCRLIVYQEPTDGNSFSLSQEVLRHIRQEEKEEVTMNAPMTSVAPPPSVLSQEPRLLISGMDQPLPLRTDLI
notes: STING (TMEM173), endogenous in murine embryonic fibroblasts and bone marrow-derived macrophages; source: endogenous, MEF lysate and BMDM lysate (cells transfected with B-DNA)
stoichiometry N: 2
